Experimental data as given in US20180009871A1 (INTARCIA THERAPEUTICS, published 2018).
Where no end group is shown, it is not given here. [ ]: non-standard residue; d: D form. Aib = CC(C)(N)C(=O)O

Columns and labels:
[1] = biological target: human glucagon receptor (GCGR) (human, UniProt P47871 26-477); experiment: cell-based or functional assay
[2] = biological target: human GLP-1 receptor (GLP-1R) (human, UniProt P43220 24-463); experiment: cell-based or functional assay
Chain of human GLP-1 receptor (GLP-1R) (P43220 24-463): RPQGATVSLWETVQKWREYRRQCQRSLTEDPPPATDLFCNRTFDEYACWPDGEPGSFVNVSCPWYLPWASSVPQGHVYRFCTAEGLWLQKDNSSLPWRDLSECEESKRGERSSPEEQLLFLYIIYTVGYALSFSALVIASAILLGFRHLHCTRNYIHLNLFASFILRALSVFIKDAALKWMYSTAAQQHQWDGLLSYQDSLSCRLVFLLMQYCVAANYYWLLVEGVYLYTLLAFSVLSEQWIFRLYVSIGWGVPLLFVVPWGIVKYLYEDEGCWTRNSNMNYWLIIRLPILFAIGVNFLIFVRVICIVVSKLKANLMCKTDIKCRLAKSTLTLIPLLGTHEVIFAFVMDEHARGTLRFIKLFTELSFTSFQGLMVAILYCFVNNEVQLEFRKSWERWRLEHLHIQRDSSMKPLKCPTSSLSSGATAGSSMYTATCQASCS

B1: Compound A65 (peptide)
peptide: YSHGTFTSDYSKYLD[Aib]KRAQEFV[Aib]WLEDEPKSKEPPPS-NH2
modifications: N-terminus assumed
SMILES: CC(C)C[C@H](NC(=O)[C@H](Cc1ccc(O)cc1)NC(=O)[C@H](CCCCN)NC(=O)[C@H](CO)NC(=O)[C@H](Cc1ccc(O)cc1)NC(=O)[C@H](CC(=O)O)NC(=O)[C@H](CO)NC(=O)[C@@H](NC(=O)[C@H](Cc1ccccc1)NC(=O)[C@@H](NC(=O)CNC(=O)[C@H](Cc1c[nH]cn1)NC(=O)[C@H](CO)NC(=O)[C@@H](N)Cc1ccc(O)cc1)[C@@H](C)O)[C@@H](C)O)C(=O)N[C@@H](CC(=O)O)C(=O)NC(C)(C)C(=O)N[C@@H](CCCCN)C(=O)N[C@@H](CCCNC(=N)N)C(=O)N[C@@H](C)C(=O)N[C@@H](CCC(N)=O)C(=O)N[C@@H](CCC(=O)O)C(=O)N[C@@H](Cc1ccccc1)C(=O)N[C@H](C(=O)NC(C)(C)C(=O)N[C@@H](Cc1c[nH]c2ccccc12)C(=O)N[C@@H](CC(C)C)C(=O)N[C@@H](CCC(=O)O)C(=O)N[C@@H](CC(=O)O)C(=O)N[C@@H](CCC(=O)O)C(=O)N1CCC[C@H]1C(=O)N[C@@H](CCCCN)C(=O)N[C@@H](CO)C(=O)N[C@@H](CCCCN)C(=O)N[C@@H](CCC(=O)O)C(=O)N1CCC[C@H]1C(=O)N1CCC[C@H]1C(=O)N1CCC[C@H]1C(=O)N[C@@H](CO)C(N)=O)C(C)C
- hGCGR pEC50 (cAMP) [1]: 12.5 pEC50
- hGLP1 pEC50 (cAMP) [2]: < 9 pEC50

Binder: YSHGTFTSDYSKYLDSARAQEFVKWLEDEPKSKSPPPS-OH [Compound A70]
- hGCGR pEC50 (cAMP) [1]: 12 pEC50
- hGLP1 pEC50 (cAMP) [2]: < 9 pEC50

Binder: YSHGTFTSDYSKYLDSARAQEFVKWLEDEPKSKEPPPS-NH2 [Compound A72]
- hGCGR pEC50 (cAMP) [1]: 12.1 pEC50
- hGLP1 pEC50 (cAMP) [2]: < 9 pEC50

Binder: YSHGTFTSDYSKYLDSARAQEFVKWLEDEPKSKSPPPS-NH2 [Compound A73]
- hGCGR pEC50 (cAMP) [1]: 11.7 pEC50
- hGLP1 pEC50 (cAMP) [2]: < 9 pEC50

Binder: YSHGTFTSDYSKYLDSARAQEFVKWLEDEPKSKEPPPS-OH [Compound A69]
- hGCGR pEC50 (cAMP) [1]: 11.8 pEC50
- hGLP1 pEC50 (cAMP) [2]: < 9 pEC50

Binder: YSHGTFTSDYSKYLDSARAQEFVKWLEDEPKSKAPPPS-OH [Compound A71]
- hGCGR pEC50 (cAMP) [1]: 11.7 pEC50
- hGLP1 pEC50 (cAMP) [2]: < 9 pEC50

B2: Compound A64 (peptide)
peptide: YTHGTFTSDYSKYLD[Aib]ARAQEFV[Aib]WLEDEPSSGAPPPS-OH
modifications: N-terminus assumed
SMILES: CC(C)C[C@H](NC(=O)[C@H](Cc1ccc(O)cc1)NC(=O)[C@H](CCCCN)NC(=O)[C@H](CO)NC(=O)[C@H](Cc1ccc(O)cc1)NC(=O)[C@H](CC(=O)O)NC(=O)[C@H](CO)NC(=O)[C@@H](NC(=O)[C@H](Cc1ccccc1)NC(=O)[C@@H](NC(=O)CNC(=O)[C@H](Cc1c[nH]cn1)NC(=O)[C@@H](NC(=O)[C@@H](N)Cc1ccc(O)cc1)[C@@H](C)O)[C@@H](C)O)[C@@H](C)O)C(=O)N[C@@H](CC(=O)O)C(=O)NC(C)(C)C(=O)N[C@@H](C)C(=O)N[C@@H](CCCNC(=N)N)C(=O)N[C@@H](C)C(=O)N[C@@H](CCC(N)=O)C(=O)N[C@@H](CCC(=O)O)C(=O)N[C@@H](Cc1ccccc1)C(=O)N[C@H](C(=O)NC(C)(C)C(=O)N[C@@H](Cc1c[nH]c2ccccc12)C(=O)N[C@@H](CC(C)C)C(=O)N[C@@H](CCC(=O)O)C(=O)N[C@@H](CC(=O)O)C(=O)N[C@@H](CCC(=O)O)C(=O)N1CCC[C@H]1C(=O)N[C@@H](CO)C(=O)N[C@@H](CO)C(=O)NCC(=O)N[C@@H](C)C(=O)N1CCC[C@H]1C(=O)N1CCC[C@H]1C(=O)N1CCC[C@H]1C(=O)N[C@@H](CO)C(=O)O)C(C)C
- hGCGR pEC50 (cAMP) [1]: 10.7 pEC50
- hGLP1 pEC50 (cAMP) [2]: < 9 pEC50

B3: Compound A62 (peptide)
peptide: YTHGTFTSDYSKYLD[Aib]KRAQEFV[Aib]WLEDEPSSGAPPPS-OH
modifications: N-terminus assumed
SMILES: CC(C)C[C@H](NC(=O)[C@H](Cc1ccc(O)cc1)NC(=O)[C@H](CCCCN)NC(=O)[C@H](CO)NC(=O)[C@H](Cc1ccc(O)cc1)NC(=O)[C@H](CC(=O)O)NC(=O)[C@H](CO)NC(=O)[C@@H](NC(=O)[C@H](Cc1ccccc1)NC(=O)[C@@H](NC(=O)CNC(=O)[C@H](Cc1c[nH]cn1)NC(=O)[C@@H](NC(=O)[C@@H](N)Cc1ccc(O)cc1)[C@@H](C)O)[C@@H](C)O)[C@@H](C)O)C(=O)N[C@@H](CC(=O)O)C(=O)NC(C)(C)C(=O)N[C@@H](CCCCN)C(=O)N[C@@H](CCCNC(=N)N)C(=O)N[C@@H](C)C(=O)N[C@@H](CCC(N)=O)C(=O)N[C@@H](CCC(=O)O)C(=O)N[C@@H](Cc1ccccc1)C(=O)N[C@H](C(=O)NC(C)(C)C(=O)N[C@@H](Cc1c[nH]c2ccccc12)C(=O)N[C@@H](CC(C)C)C(=O)N[C@@H](CCC(=O)O)C(=O)N[C@@H](CC(=O)O)C(=O)N[C@@H](CCC(=O)O)C(=O)N1CCC[C@H]1C(=O)N[C@@H](CO)C(=O)N[C@@H](CO)C(=O)NCC(=O)N[C@@H](C)C(=O)N1CCC[C@H]1C(=O)N1CCC[C@H]1C(=O)N1CCC[C@H]1C(=O)N[C@@H](CO)C(=O)O)C(C)C
- hGCGR pEC50 (cAMP) [1]: 11.5 pEC50
- hGLP1 pEC50 (cAMP) [2]: < 9 pEC50

B4: Compound A66 (peptide)
peptide: YSHGTFTSDYSKYLD[Aib]KRAQEFV[Aib]WLEDEPKSKSPPPS-NH2
modifications: N-terminus assumed
SMILES: CC(C)C[C@H](NC(=O)[C@H](Cc1ccc(O)cc1)NC(=O)[C@H](CCCCN)NC(=O)[C@H](CO)NC(=O)[C@H](Cc1ccc(O)cc1)NC(=O)[C@H](CC(=O)O)NC(=O)[C@H](CO)NC(=O)[C@@H](NC(=O)[C@H](Cc1ccccc1)NC(=O)[C@@H](NC(=O)CNC(=O)[C@H](Cc1c[nH]cn1)NC(=O)[C@H](CO)NC(=O)[C@@H](N)Cc1ccc(O)cc1)[C@@H](C)O)[C@@H](C)O)C(=O)N[C@@H](CC(=O)O)C(=O)NC(C)(C)C(=O)N[C@@H](CCCCN)C(=O)N[C@@H](CCCNC(=N)N)C(=O)N[C@@H](C)C(=O)N[C@@H](CCC(N)=O)C(=O)N[C@@H](CCC(=O)O)C(=O)N[C@@H](Cc1ccccc1)C(=O)N[C@H](C(=O)NC(C)(C)C(=O)N[C@@H](Cc1c[nH]c2ccccc12)C(=O)N[C@@H](CC(C)C)C(=O)N[C@@H](CCC(=O)O)C(=O)N[C@@H](CC(=O)O)C(=O)N[C@@H](CCC(=O)O)C(=O)N1CCC[C@H]1C(=O)N[C@@H](CCCCN)C(=O)N[C@@H](CO)C(=O)N[C@@H](CCCCN)C(=O)N[C@@H](CO)C(=O)N1CCC[C@H]1C(=O)N1CCC[C@H]1C(=O)N1CCC[C@H]1C(=O)N[C@@H](CO)C(N)=O)C(C)C
- hGCGR pEC50 (cAMP) [1]: 12.5 pEC50
- hGLP1 pEC50 (cAMP) [2]: < 9 pEC50

B5: Compound A68 (peptide)
peptide: YSHGTFTSDYSKYLD[Aib]ARAQEFV[Aib]WLEDEPKSKEPPPS-NH2
modifications: N-terminus assumed
SMILES: CC(C)C[C@H](NC(=O)[C@H](Cc1ccc(O)cc1)NC(=O)[C@H](CCCCN)NC(=O)[C@H](CO)NC(=O)[C@H](Cc1ccc(O)cc1)NC(=O)[C@H](CC(=O)O)NC(=O)[C@H](CO)NC(=O)[C@@H](NC(=O)[C@H](Cc1ccccc1)NC(=O)[C@@H](NC(=O)CNC(=O)[C@H](Cc1c[nH]cn1)NC(=O)[C@H](CO)NC(=O)[C@@H](N)Cc1ccc(O)cc1)[C@@H](C)O)[C@@H](C)O)C(=O)N[C@@H](CC(=O)O)C(=O)NC(C)(C)C(=O)N[C@@H](C)C(=O)N[C@@H](CCCNC(=N)N)C(=O)N[C@@H](C)C(=O)N[C@@H](CCC(N)=O)C(=O)N[C@@H](CCC(=O)O)C(=O)N[C@@H](Cc1ccccc1)C(=O)N[C@H](C(=O)NC(C)(C)C(=O)N[C@@H](Cc1c[nH]c2ccccc12)C(=O)N[C@@H](CC(C)C)C(=O)N[C@@H](CCC(=O)O)C(=O)N[C@@H](CC(=O)O)C(=O)N[C@@H](CCC(=O)O)C(=O)N1CCC[C@H]1C(=O)N[C@@H](CCCCN)C(=O)N[C@@H](CO)C(=O)N[C@@H](CCCCN)C(=O)N[C@@H](CCC(=O)O)C(=O)N1CCC[C@H]1C(=O)N1CCC[C@H]1C(=O)N1CCC[C@H]1C(=O)N[C@@H](CO)C(N)=O)C(C)C
- hGCGR pEC50 (cAMP) [1]: 11.3 pEC50
- hGLP1 pEC50 (cAMP) [2]: < 9 pEC50

B6: Compound A67 (peptide)
peptide: YSHGTFTSDYSKYLD[Aib]ARAQEFV[Aib]WLEDEPKSKSPPPS-NH2
modifications: N-terminus assumed
SMILES: CC(C)C[C@H](NC(=O)[C@H](Cc1ccc(O)cc1)NC(=O)[C@H](CCCCN)NC(=O)[C@H](CO)NC(=O)[C@H](Cc1ccc(O)cc1)NC(=O)[C@H](CC(=O)O)NC(=O)[C@H](CO)NC(=O)[C@@H](NC(=O)[C@H](Cc1ccccc1)NC(=O)[C@@H](NC(=O)CNC(=O)[C@H](Cc1c[nH]cn1)NC(=O)[C@H](CO)NC(=O)[C@@H](N)Cc1ccc(O)cc1)[C@@H](C)O)[C@@H](C)O)C(=O)N[C@@H](CC(=O)O)C(=O)NC(C)(C)C(=O)N[C@@H](C)C(=O)N[C@@H](CCCNC(=N)N)C(=O)N[C@@H](C)C(=O)N[C@@H](CCC(N)=O)C(=O)N[C@@H](CCC(=O)O)C(=O)N[C@@H](Cc1ccccc1)C(=O)N[C@H](C(=O)NC(C)(C)C(=O)N[C@@H](Cc1c[nH]c2ccccc12)C(=O)N[C@@H](CC(C)C)C(=O)N[C@@H](CCC(=O)O)C(=O)N[C@@H](CC(=O)O)C(=O)N[C@@H](CCC(=O)O)C(=O)N1CCC[C@H]1C(=O)N[C@@H](CCCCN)C(=O)N[C@@H](CO)C(=O)N[C@@H](CCCCN)C(=O)N[C@@H](CO)C(=O)N1CCC[C@H]1C(=O)N1CCC[C@H]1C(=O)N1CCC[C@H]1C(=O)N[C@@H](CO)C(N)=O)C(C)C
- hGCGR pEC50 (cAMP) [1]: 10.9 pEC50
- hGLP1 pEC50 (cAMP) [2]: < 9 pEC50

Binder: YTHGTFTSDYSKYLDSARAQEFVKWLEDEPSSGAPPPS-OH [Compound A63]
- hGCGR pEC50 (cAMP) [1]: 10.4 pEC50
- hGLP1 pEC50 (cAMP) [2]: < 9 pEC50

Binder: YSHGTFTSDYSKYLDSARAQEFVKWLEDEPKSKAPPPS-NH2 [Compound A74]
- hGCGR pEC50 (cAMP) [1]: 11.6 pEC50
- hGLP1 pEC50 (cAMP) [2]: < 9 pEC50
